# In publication PMC3343632 (Nature cell biology, 2012):
# B1: GFP-tagged tailless kinesin-1 motor, taillessKhc::GFP (1-849) (domain or fragment, UniProt P17210 1-849, looked up)
# chain: MSAEREIPAEDSIKVVCRFRPLNDSEEKAGSKFVVKFPNNVEENCISIAGKVYLFDKVFKPNASQEKVYNEAAKSIVTDVLAGYNGTIFAYGQTSSGKTHTMEGVIGDSVKQGIIPRIVNDIFNHIYAMEVNLEFHIKVSYYEIYMDKIRDLLDVSKVNLSVHEDKNRVPYVKGATERFVSSPEDVFEVIEEGKSNRHIAVTNMNEHSSRSHSVFLINVKQENLENQKKLSGKLYLVDLAGSEKVSKTGAEGTVLDEAKNINKSLSALGNVISALADGNKTHIPYRDSKLTRILQESLGGNARTTIVICCSPASFNESETKSTLDFGRRAKTVKNVVCVNEELTAEEWKRRYEKEKEKNARLKGKVEKLEIELARWRAGETVKAEEQINMEDLMEASTPNLEVEAAQTAAAEAALAAQRTALANMSASVAVNEQARLATECERLYQQLDDKDEEINQQSQYAEQLKEQVMEQEELIANARREYETLQSEMARIQQENESAKEEVKEVLQALEELAVNYDQKSQEIDNKNKDIDALNEELQQKQSVFNAASTELQQLKDMSSHQKKRITEMLTNLLRDLGEVGQAIAPGESSIDLKMSALAGTDASKVEEDFTMARLFISKMKTEAKNIAQRCSNMETQQADSNKKISEYEKDLGEYRLLISQHEARMKSLQESMREAENKKRTLEEQIDSLREECAKLKAAEHVSAVNAEEKQRAEELRSMFDSQMDELREAHTRQVSELRDEIAAKQHEMDEMKDVHQKLLLAHQQMTADYEKVRQEDAEKSSELQNIILTNERREQARKDLKGLEDTVAKELQTLHNLRKLFVQDLQQRIRKNVVNEESEEDGGSLA
# Biological target: the molecule itself
# Assay: single-molecule TIRF microscopy with stepwise photobleaching
protein,measurement,value
B1,stoichiometry N,2
